± gives the standard deviation of the averaged measurements.
Test system: ATP
Assay: switch fluorescence ratio, 500 uM ATP over buffer (Cy3 cluster intensity, sum of 5 cycles each) (fold (ratio)); higher = stronger signal-on switching upon ATP binding; sequences stand for … in TCGTCGGCAGCGTCAGATGTGTATAAGAGACAGTTTTTTTTTTTTTTTTTTTTTTTTT…TC
Details: aptamer strand: ATP DNA aptamer (quencher-CACCTGGGGGAGTATTGCGGAGGAAGG + anchor), 100 nM annealed; ATP concentration: 500 uM
How it was run: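 Per cluster, summed Cy3 intensity from the target cycles was divided by that from the buffer cycles to give the fluorescence ratio, then averaged per switch-domain sequence. Clusters outside 100-1000 RFU were excluded. The Cy3-labelled switching-strand clusters, on a modified Illumina MiSeq flow-cell, were annealed to 100 nM quencher-labelled ATP aptamer and imaged in selection buffer, then after 15 min with 500 uM ATP at 22 °C, for five cycles with NaOH stripping and re-annealing between them.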
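Further: ATP exposure 15 min at 22 °C before imaging.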

| Sequence | switch fluorescence ratio |
| --- | --- |
| TAGTTTGGAA | 0.984 ± 0.04 |
| GCTCGTAAGT | 1.01 ± 0.0049 |
| TGGGATACGT | 1.55 ± 0.79 |
| TTGTGGTTGT | 0.966 ± 0.016 |
| AAGGATGTTG | 0.9998 ± 0.0017 |
| TATGGGTACG | 1.01 ± 0.016 |
| GATAATTGTA | 0.9822 ± 0.0033 |
| CAGGGTACGA | 1.05 ± 0.012 |
| CCAGGGTGCT | 2 ± 0.39 |
| TGAATGATTT | 0.967 ± 0.027 |
| CTCGTTGAGG | 0.979 ± 0.032 |
| TTTTAGGATT | 1.016 ± 0.0018 |
| TATATTCTTA | 1 ± 0.065 |
| TTAGTTGGGA | 0.9828 ± 0.0087 |
| AAGGCTAAAA | 1.016 ± 0.0059 |
| TTGAAGGGTT | 0.9978 ± 0.0033 |
| TTGATGTCCC | 1 ± 0.027 |
| GAGATGAGGA | 0.97 ± 0.024 |
| GGTTCTTTTC | 0.996 ± 0.037 |
| TCTGGTTAGT | 1.01 ± 0.066 |
| ATATTTGCCA | 1.02 ± 0.021 |
| TCGGAGGAAA | 0.999 ± 0.047 |
| TCACTCATAT | 1.02 ± 0.013 |

| Sequence | switch fluorescence ratio |
| --- | --- |
| GGAGCGGTGG | 0.955 ± 0.042 |
| GGGGGTTTAA | 1.02 ± 0.014 |
| GTCGTAAAAA | 1.61 ± 0.0016 |
| TAGGCAACGA | 1.04 ± 0.063 |
| CATTTGATCG | 1.03 ± 0.013 |
| TTTTTGCATC | 1.2 ± 0.27 |
| TGCGTTAAAA | 0.994 ± 0.042 |
| TGCAGAAAAT | 1.01 ± 0.036 |
| TGAACTAAAT | 1.01 ± 0.024 |
| ATGTACGCTT | 1.052 ± 0.0038 |
| CATGTAGCCG | 1.01 ± 0.061 |
| TTCTGAGGGG | 1.03 ± 0.035 |
| GAGATAGTTT | 0.995 ± 0.042 |
| TCGAGCAGCT | 1.1 ± 0.032 |
| GATTAATTTT | 1.02 ± 0.043 |
| ATTTGTTGCA | 1.0298 ± 0.00091 |
| GGTTCAACGG | 0.982 ± 0.014 |
| GAATTTGCGC | 1.03 ± 0.084 |
| TGATGTGAAA | 0.977 ± 0.015 |
| TTTTCGGCTT | 0.965 ± 0.031 |
| TCCGGTGACG | 0.968 ± 0.033 |
| TATTTTGTAG | 0.995 ± 0.019 |
| TATCTAGAGG | 1.01 ± 0.022 |

| Sequence | switch fluorescence ratio |
| --- | --- |
| TGATATTTTT | 0.998 ± 0.028 |
| AATGACTATG | 0.976 ± 0.056 |
| CAAAGGTGCA | 1.09 ± 0.032 |
| TTAAGAATGG | 1.01 ± 0.014 |
| ATAACGGCCT | 1.007 ± 0.0099 |
| TTTCTCCCTT | 1.19 ± 0.13 |
| TTTTATGATT | 0.997 ± 0.04 |
| TGGGAGAGGA | 1.02 ± 0.049 |
| CAGGGTGGGT | 1.02 ± 0.05 |
| GAAAAATTTT | 1.02 ± 0.026 |
| AGTTGGAAAA | 0.997 ± 0.01 |
| CCAAGTGGGC | 1.03 ± 0.053 |
| ATGGGCTGCT | 1.05 ± 0.062 |
| GATTGTAATA | 1.01 ± 0.034 |
| GATTTGCCGG | 0.995 ± 0.013 |
| GACGGGCGGC | 0.984 ± 0.02 |
| CCTTGGGGTG | 1.06 ± 0.14 |
| TTGGATCTTA | 0.972 ± 0.02 |
| TTTCAAAGGC | 1.17 ± 0.2 |
| AAATCGGGGG | 1.05 ± 0.084 |
| TTCGTTATAC | 2.29 ± 1.1 |
| GGTTCAATCT | 0.9815 ± 0.0012 |
| CTGATTGTGT | 0.9718 ± 0.0034 |

| Sequence | switch fluorescence ratio |
| --- | --- |
| AGGGTTTAGT | 1 ± 0.01 |
| TTGCAGTAGC | 1.05 ± 0.033 |
| GTGTTTATCG | 0.966 ± 0.016 |
| GGCATCGTAA | 1.01 ± 0.025 |
| TTTATCATGC | 0.987 ± 0.019 |
| GGTGTGTGGT | 1.002 ± 0.0029 |
| ACTGTTTTTA | 0.9849 ± 0.004 |
| AACTTTAGTG | 0.991 ± 0.013 |
| TTCTGGAAAA | 1.05 ± 0.064 |
| TGCCATCCGA | 1.09 ± 0.054 |
| AATTCCTTGG | 0.984 ± 0.034 |
| GAGCTAGGGA | 1.011 ± 0.0013 |
| TATTTTTTTG | 1.01 ± 0.018 |
| AAGTTCGTTT | 0.986 ± 0.026 |
| CTCTGAGGGA | 1.01 ± 0.027 |
| TTTTACCGAG | 1.047 ± 0.0032 |
| TGATGAGTCT | 1.03 ± 0.062 |
| GCAGAGGGGG | 1.04 ± 0.029 |
| CGGTTGATGC | 0.997 ± 0.059 |
| AGAGCGGTTC | 1.06 ± 0.11 |
| ACTTTCTAGC | 1.07 ± 0.029 |
| TGTATTTTTT | 1.05 ± 0.093 |
| TGATCGGCGG | 1.02 ± 0.05 |

| Sequence | switch fluorescence ratio |
| --- | --- |
| ATAGATAGCC | 0.96 ± 0.015 |
| TGGGAGTCGG | 1.01 ± 0.035 |
| GGCTTGGGAG | 0.982 ± 0.019 |
| TAGTGGGTTG | 1 ± 0.021 |
| CGTAGTTCTT | 1.01 ± 0.03 |
| TTGACAAGGG | 0.997 ± 0.015 |
| AGTGCGGAAG | 1.04 ± 0.066 |
| TAAACAGTTC | 1.05 ± 0.073 |
| AGGTGTAGTG | 0.987 ± 0.016 |
| GATTGTTTGT | 1.03 ± 0.067 |
| AGGTAGAGTA | 0.97 ± 0.034 |
| TATGGCTTTG | 0.9945 ± 0.0061 |
| TTTCATTGGC | 0.986 ± 0.028 |
| GGAGACGATA | 1.04 ± 0.0032 |
| GGTCGCCGGG | 0.976 ± 0.081 |
| GCTAGAGGGG | 1.02 ± 0.048 |
| TTTTAGGAGC | 0.985 ± 0.023 |
| GATGGACTAA | 1.02 ± 0.018 |
| GGAGTATTAG | 0.999 ± 0.072 |
| GAGGGAGATG | 1.03 ± 0.018 |
| TAGGTAGGGT | 1.04 ± 0.073 |
| TACGGTCAGC | 1.03 ± 0.016 |
| GAGGTAGGGA | 1.06 ± 0.13 |

| Sequence | switch fluorescence ratio |
| --- | --- |
| AATGGTTTTT | 0.991 ± 0.031 |
| CGTTAGGGGA | 0.999 ± 0.011 |
| GAATCAAGCG | 0.986 ± 0.059 |
| TTTGGGAGAT | 0.951 ± 0.023 |
| TTTATGAGCA | 0.998 ± 0.035 |
| TTTTGAAACT | 0.9733 ± 0.0091 |
| TGGTTATGGC | 0.923 ± 0.082 |
| ACGTAAAAAG | 1.01 ± 0.065 |
| TTGCGGGGCC | 1.04 ± 0.051 |
| ACTATTTCGA | 1.01 ± 0.03 |
| CACTAGGCGG | 1.0232 ± 0.00067 |
| CTAAGAAGGG | 1.05 ± 0.061 |
| TAGTATGGGA | 0.968 ± 0.013 |
| TTTGGGGCTG | 1.04 ± 0.11 |
| AAGTTTATCT | 0.989 ± 0.02 |
| ACTGATCTGA | 0.987 ± 0.04 |
| TCAAATTTTA | 1.02 ± 0.031 |
| GGTCGTGCGC | 0.996 ± 0.029 |
| ATTCTGGGGT | 1.04 ± 0.07 |
| TTTTTCGTCT | 1.02 ± 0.028 |
| ATGGGTGGGG | 1.01 ± 0.037 |
| TTAATCTGCC | 1.15 ± 0.025 |
| AACGCCGAGT | 0.9816 ± 0.0097 |

| Sequence | switch fluorescence ratio |
| --- | --- |
| AAAAAAGAGA | 0.977 ± 0.046 |
| TTATACACAT | 1.06 ± 0.023 |
| AATTTTAGTC | 0.994 ± 0.04 |
| AAGGGGTTGA | 1.01 ± 0.023 |
| TTTTCCGGGG | 1.04 ± 0.045 |
| GGGCGTTATG | 1.0238 ± 0.00033 |
| GTTTTCTTAT | 0.998 ± 0.029 |
| TGCCGTTTGG | 1 ± 0.03 |
| GGGGCTTGCA | 1.02 ± 0.019 |
| ATGTGAGTTC | 0.985 ± 0.022 |
| TGATCATCTA | 0.993 ± 0.024 |
| TCCGGCCAGC | 1.28 ± 0.025 |
| GAAAATTATG | 1.009 ± 0.0086 |
| TGTTGCGTGC | 1.03 ± 0.038 |
| TGGCTGGTAA | 0.991 ± 0.021 |
| TTCCTATGTG | 1.01 ± 0.036 |
| TGGATGCATT | 1.03 ± 0.015 |
| ATGCGAAGG | 0.98 ± 0.038 |
| CCGGGGGAAC | 1.14 ± 0.09 |

From the supplement of paper PMC10126150
